The record followed here is paper PMC6561738 (Science Advances, 2019).

For series [1], the target named is SecA (wild type) (E. coli, UniProt P10408 1-901). The series can be described thus: atomic force microscopy.
Series [2] concerns the molecule itself. The series can be described thus: atomic force microscopy.

B1: SecYEG translocon (SecY C329S, C385S; His-tagged SecE; SecG) (complex)
chain 1: MAKQPGLDFQSAKGGLGELKRRLLFVIGALIVFRIGSFIPIPGIDAAVLAKLLEQQRGTIIEMFNMFSGGALSRASIFALGIMPYISASIIIQLLTVVHPTLAEIKKEGESGRRKISQYTRYGTLVLAIFQSIGIATGLPNMPGMQGLVINPGFAFYFTAVVSLVTGTMFLMWLGEQITERGIGNGISIIIFAGIVAGLPPAIAHTIEQARQGDLHFLVLLLVAVLVFAVTFFVVFVERGQRRIVVNYAKRQQGRRVYAAQSTHLPLKVNMAGVIPAIFASSIILFPATIASWFGGGTGWNWLTTISLYLQPGQPLYVLLYASAIIFFSFFYTALVFNPRETADNLKKSGAFVPGIRPGEQTAKYIDKVMTRLTLVGALYITFISLIPEFMRDAMKVPFYFGGTSLLIVVVVIMDFMAQVQTLMMSSQYESALKKANLKGYGR
chain 2: MSANTEAQGSGRGLEAMKWVVVVALLLVAIVGNYLYRDIMLPLRALAVVILIAAAGGVALLTTKGKATVAFAREARTEVRKVIWPTRQETLHTTLIVAAVTAVMSLILWGLDGILVRLVSFITGLRF
chain 3: MYEALLVVFLIVAIGLVGLIMLQQGKGADMGASFGAGASATLFGSSGSGNFMTRMTALLATLFFIISLVLGNINSNKTNKGSEWENLSAPAKTEQTQPAAPAKPTSDIPN
Regarding B1, the binding result in series [1] is recorded as “binds”.

B2: SecAC4Q801C, cross-linked dimeric species (SecA C98S, C885S, C887S, C896S, Q801C) (enzyme)
chain: MLIKLLTKVFGSRNDRTLRRMRKVVNIINAMEPEMEKLSDEELKGKTAEFRARLEKGEVLENLIPEAFAVVREASKRVFGMRHFDVQLLGGMVLNERSIAEMRTGEGKTLTATLPAYLNALTGKGVHVVTVNDYLAQRDAENNRPLFEFLGLTVGINLPGMPAPAKREAYAADITYGTNNEYGFDYLRDNMAFSPEERVQRKLHYALVDEVDSILIDEARTPLIISGPAEDSSEMYKRVNKIIPHLIRQEKEDSETFQGEGHFSVDEKSRQVNLTERGLVLIEELLVKEGIMDEGESLYSPANIMLMHHVTAALRAHALFTRDVDYIVKDGEVIIVDEHTGRTMQGRRWSDGLHQAVEAKEGVQIQNENQTLASITFQNYFRLYEKLAGMTGTADTEAFEFSSIYKLDTVVVPTNRPMIRKDLPDLVYMTEAEKIQAIIEDIKERTAKGQPVLVGTISIEKSELVSNELTKAGIKHNVLNAKFHANEAAIVAQAGYPAAVTIATNMAGRGTDIVLGGSWQAEVAALENPTAEQIEKIKADWQVRHDAVLEAGGLHIIGTERHESRRIDNQLRGRSGRQGDAGSSRFYLSMEDALMRIFASDRVSGMMRKLGMKPGEAIEHPWVTKAIANAQRKVESRNFDIRKQLLEYDDVANDQRRAIYSQRNELLDVSDVSETINSIREDVFKATIDAYIPPQSLEEMWDIPGLQERLKNDFDLDLPIAEWLDKEPELHEETLRERILAQSIEVYQRKEEVVGAEMMRHFEKGVMLQTLDSLWKEHLAAMDYLRQGIHLRGYAQKDPKCEYKRESFSMFAAMLESLKYEVISTLSKVQVRMPEEVEELEQQRRMEAERLAQMQQLSHQDDDSAAAAALAAQTGERKVGRNDPSPSGSGKKYKQSHGRLQ
modifications: cross-linked dimer (so in the source); the chemistry of the cross-link is not told
Turning to B2, the binding result in series [2] is reported as “binds”.
